Test results: patent US20260151519A1 (AKTIS ONCOLOGY, published 2026)
Bridges are numbered along the chain shown (N, C = ends). Primed or numbered codes have the meaning given here. Where no end group is shown, it is not given here. [ ]: non-standard residue; d: D form. The star is where a group is joined. Biotin = O=C1N[C@H]2[C@H](CS[C@H]2CCCCC(=O)*)N1; hydroxy‑norleucine = hydroxy-norleucine residue; Lys(Me3) = C[N+](C)(C)CCCC[C@H](N)C(=O)O; Cit = NC(=O)NCCC[C@H](N)C(=O)O; PEG4″ = 4(ethylene glycol); Nle = CCCC[C@H](N)C(=O)O

T1: Human Nectin-4 (human, UniProt Q96NY8 32-349, limits assumed)
T1 construct: Protein immobilised on the SPR chip; also called target protein
T1 sequence: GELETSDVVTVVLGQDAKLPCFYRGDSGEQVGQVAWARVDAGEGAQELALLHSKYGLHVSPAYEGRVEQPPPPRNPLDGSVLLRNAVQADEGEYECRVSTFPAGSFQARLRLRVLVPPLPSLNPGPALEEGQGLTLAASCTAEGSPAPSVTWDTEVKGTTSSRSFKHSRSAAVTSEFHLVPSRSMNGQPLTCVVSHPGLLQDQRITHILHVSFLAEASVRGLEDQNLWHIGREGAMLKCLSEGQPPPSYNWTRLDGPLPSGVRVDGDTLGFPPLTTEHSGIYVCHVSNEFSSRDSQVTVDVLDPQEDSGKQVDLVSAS

T2: Human Nectin-4 expressed on cells (human, UniProt Q96NY8 32-510)
T2 construct: Endogenous on HT-1376 cells; also called endogenous Nectin-4 on HT-1376 cells; cell surface Nectin-4
T2 sequence: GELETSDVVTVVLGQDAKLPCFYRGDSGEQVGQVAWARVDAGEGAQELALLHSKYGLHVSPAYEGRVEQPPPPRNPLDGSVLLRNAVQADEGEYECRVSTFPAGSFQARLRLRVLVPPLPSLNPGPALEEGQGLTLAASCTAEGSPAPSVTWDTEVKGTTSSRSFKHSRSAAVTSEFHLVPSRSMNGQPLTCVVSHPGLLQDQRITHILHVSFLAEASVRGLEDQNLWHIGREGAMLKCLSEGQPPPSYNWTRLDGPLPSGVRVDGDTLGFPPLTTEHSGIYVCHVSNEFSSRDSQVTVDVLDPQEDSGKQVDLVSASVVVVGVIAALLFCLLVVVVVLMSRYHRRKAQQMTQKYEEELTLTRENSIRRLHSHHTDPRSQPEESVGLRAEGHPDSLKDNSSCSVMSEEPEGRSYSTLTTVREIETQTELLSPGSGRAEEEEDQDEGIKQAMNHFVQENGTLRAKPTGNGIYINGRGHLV


Assays:
[1] = target: T1, Human Nectin-4; test: Table 2B (DELFIA or SPR)
[2] = target: T1, Human Nectin-4; test: SPR, Biacore T200, target immobilised, 1:1 model
Experimental: Surface plasmon resonance (SPR) analyses were performed using Biacore T200 (GE Healthcare). Target protein (“ligand”) was immobilized to a CM5 Series S sensor chip (Cytiva) using amine-coupling chemistry. Running buffer was 0.05% surfactant P20 in HEPES buffered saline (HBS-P), pH 7.4 (Cytiva). Immobilization was performed at 25° C. Carboxyl groups in each flow cell were activated using a 1:1 mixture of 0.4 M 1-ethyl-3-(3-dimethylaminopropyl)-carbodiimide in water (EDC) and 0.1 M N-hydroxysuccinimide in water (NHS) for 7 minutes. The ligand was prepared in 10 mM sodium acetate pH 5 (Cytiva). Pulsatile injections were made to target a specific immobilization level. Any remaining amine-reactive esters on the chip surface were blocked with a 7-minute injection of 1 M ethanolamine, pH 8.5. Three 10-second pulses of 50 mM sodium hydroxide were then made to remove any unbound ligand. Reference cells were modified using amine coupling chemistry, omitting ligand injection.
Increase in signal (RU) is proportional to an increase in binding events between the analyte and ligand surface. The injection was then stopped, and dissociation was measured. […] Measured association (kₐ, 1/Ms⁻¹) and dissociation (kd, s⁻¹) were fit to a 1:1 binding model to calculate a dissociation equilibrium constant, KD(M) for each analyte.

[3] = target: T2, Human Nectin-4 expressed on cells; test: DELFIA whole-cell competition against a europium-chelate miniprotein
Experimental: A whole cell binding assay was used to estimate the equilibrium binding affinity (KD) or binding inhibition constant (Kᵢ) of miniprotein ligands to cells expressing a target of interest. Cells were dispensed into a 384-well plate and incubated at 37° C. in 5% CO₂ overnight. The next day cells were gently washed once in assay buffer prior to addition of europium chelated ligand. […] For Kᵢ determination, a single concentration (KD equivalent concentration) of europium-chelate miniprotein was added to each well followed immediately by the addition of unconjugated competing ligand over 12 different concentrations ranging from 100 times below and above expected Kᵢ values as before. […] Cells were then washed three times at room temperature with 1×PBS followed by the addition of 2 M HCl and incubated for two h at 37° C. Following this step, 2 M NaOH and fluorescent inducer solution were added to each well and incubated for 30 minutes at room temperature according to the manufacturer's protocol (Perkin-ELMER DELFIA assay). Plates were read on an Envision plate reader and a curve-fitting model was applied to estimate KD and Kᵢ values using GraphPad Prism software.

Row | Binder | Kd [1] [nM] | Kd [2] [nM] | Ki [3] [nM]
1 | {Biotin-PEG4″}-CEYDEEFFTALKKLRGGDICYYIQQAFNYLPGICIEEILDNLGC (designed binder, disulfide 1-34, 20-44) [C107] | 3.38 |  | 
2 | {Biotin-PEG4″}-CEYDEEFFTALARLRGGDICYYIQA[hydroxy‑norleucine]FQYLPGLCIEEILDNLGCS-OH (designed binder, disulfide 1-34, 20-44) [C173] | 5 |  | 
3 | {Biotin-PEG4″}-CEYDEEFFTALA[Cit]LRGDDICSYIQA[hydroxy‑norleucine]FQYLPGLCIEEILDNLGCS-OH (designed binder, disulfide 1-34, 20-44) [C170] | 8.8 |  | 
4 | {Biotin-PEG4″}-CEYDEEFFTALARLRGGDICYYIQA[hydroxy‑norleucine]FQYLPGLCIEEILDNLGCS-OH (designed binder, disulfide 1-34, 20-44) [C164] | 5 |  | 
5 | {Biotin-PEG4″}-CEYDEEFFTALKRLRGGDICEYIQA[Nle]FQYLPGLCIEEILDNLGCS-OH (designed binder, disulfide 1-34, 20-44) [C199] | 3.5 |  | 
6 | Ac-CEYDEQFFTALARLRGGDICYYIQEQFATVPGLCIEEILDQLGC-NH2 (designed binder, disulfide 1-34, 20-44) [C128] | 10.1 |  | 
7 | Ac-CEYDEQFFTALKALRGGDICYYIQASFNYLPDLCIEEILDNLGC-NH2 (designed binder, disulfide 1-34, 20-44) [C112] | 6.24 |  | 
8 | Ac-CEYDEEFFTALKRLRGGDICYYIKKKFKKVPKLCIEEILEKLGC-OH (designed binder, disulfide 1-34, 20-44) [C79] | 0.38 |  | 
9 | Ac-CEYDEEFFKALKRLRGGDICYYIKKKFKKVPKLCIEEILDKLGC-OH (designed binder, disulfide 1-34, 20-44) [C81] | 0.43 |  | 
10 | Ac-CEYDEEFFKGLKRLRGGDICYYIKKKFKKVPKLCIEEILDKLGC-OH (designed binder, disulfide 1-34, 20-44) [C80] | 2.7 |  | 
11 | {Biotin-PEG4″}-CEYDEEFFTALARLRGDDICSYIQAKFQYLPGLCIEEILDNLGCS-OH (designed binder, disulfide 1-34, 20-44) [C143] | 0.55 | 0.238 | 
12 | {Biotin-PEG4″}-CEYDEEFFTALARLRGGDICQYIQAKFQYLPGQCIEEILDNLGCS (designed binder, disulfide 1-34, 20-44) [C149] | 0.75 | 0.297 | 
13 | {Biotin-PEG4″}-CEYDEQFFTALKRLRGADICSYIQASFQYLPGLCIEEILDNLGCS (designed binder, disulfide 1-34, 20-44) [C185] | 1 | 0.371 | 
14 | {Biotin-PEG4″}-CEYDEEFFTALA[Cit]LRGGDICEYIQAKFQYLPGLCIEEILDNLGCS-OH (designed binder, disulfide 1-34, 20-44) [C171] | 2.2 |  | 
15 | {Biotin-PEG4″}-CEYDEEFFTALA[Cit]LRGDDICSYIQAKFQYLPGLCIEEILDNLGCS-OH (designed binder, disulfide 1-34, 20-44) [C172] | 1.8 |  | 
16 | {Biotin-PEG4″}-CDYDEEFFTALA[Cit]LRGGDICEYIQAKFQYLPGLCIEEILDNLGCS-OH (designed binder, disulfide 1-34, 20-44) [C176] | 1.3 |  | 
17 | {Biotin-PEG4″}-CEYDEEFFTALA[Cit]LRGGDICSYIQAKFQYLPGLCIEEILDNLGCS-OH (designed binder, disulfide 1-34, 20-44) [C175] | 2.3 |  | 
18 | {Biotin-PEG4″}-CEYDEEFFTALA[Cit]LRGGDICYYIQAKFQYLPGLCIEEILDNLGCS-OH (designed binder, disulfide 1-34, 20-44) [C163] | 1.9 |  | 
19 | {Biotin-PEG4″}-CDYDEQFFTALA[Cit]LRGGDICEYIQA[Lys(Me3)]FQYLPGLCIEEILDNLGCS-OH (designed binder, disulfide 1-34, 20-44) [C259] |  | 0.226 | 
20 | {Biotin-PEG4″}-CEYDEEFFTALARLRGADICQYIQA[Lys(Me3)]FQYLPALCIEEILDNLGCS-OH (designed binder, disulfide 1-34, 20-44) [C252] |  |  | 0.76
21 | {Biotin-PEG4″}-CDYDEQFFTALKRLRGADICEYIQA[Lys(Me3)]FQYLPGECIEEILDNLGCS-OH (designed binder, disulfide 1-34, 20-44) [C257] |  |  | 0.66
22 | {Biotin-PEG4″}-CDYDEQFFTALKRLRGGDICEYIQA[Lys(Me3)]FQYLPGECIEEILDNLGCS-OH (designed binder, disulfide 1-34, 20-44) [C255] |  |  | 0.66
23 | {Biotin-PEG4″}-CEYDEQFFTALKRLRGGDICYYISAQFNTLPDLCIEEILENLGC-OH (designed binder, disulfide 1-34, 20-44) [C103] | 6.6 |  | 
24 | Ac-CEYDEEFFTALKKLRGGDICYYIQQAFNYLPGICIEEILDNLGC-OH (designed binder, disulfide 1-34, 20-44) [C104] | 3.7 |  | 
25 | Ac-CEYDEEFFTALSRLRGGDICYYIQQAFQYLPGLCIEEILDNLGC-NH2 (designed binder, disulfide 1-34, 20-44) [C132] | 30.1 |  | 
26 | Ac-CEYDEQFFTALKRLRGGDICYYISAQFNTLPDLCIEEILENLGC-OH (designed binder, disulfide 1-34, 20-44) [C100] | 4.8 |  | 
27 | {Biotin-PEG4″}-CEYDEQFFTALARLRGGDICYYIQEQFATVPGLCIEEILDQLGCS-OH (designed binder, disulfide 1-34, 20-44) [C131] | 12.4 |  | 
28 | Ac-CEYDEQFFTALSSLRGGDICYYIQEQFANVPGICIEEILDNLGC (designed binder, disulfide 1-34, 20-44) [C136] | 36.5 |  | 
29 | {Biotin-PEG4″}-CEYDEQFFTALSSLRGGDICYYIQEQFANVPGICIEEILDNLGCS (designed binder, disulfide 1-34, 20-44) [C139] | 25.2 |  | 
